Results published in doi:10.1101/2022.01.06.475303.

Experiments:
[1] = target: SARS-CoV-2 S protein (recombinant, His-tagged) (SARS-CoV-2 Wuhan-Hu-1 (MN908947)) (UniProt P0DTC2)
[2] = target: SARS-CoV-2 receptor binding domain (RBD), Wuhan-1 (SARS-CoV-2 Wuhan-Hu-1) (UniProt P0DTC2); assay: SPR

| Substance | fold higher binding affinity than for RBD [1] [fold] | Kd [2] [nM] |
| --- | --- | --- |
| CC6.33 Fab | 10 | – |
| CC6.33 IgG (antibody) | – | 257 |
| CC12.1 IgG (antibody) | – | 6 |
| CC6.30 IgG (antibody) | – | 1.7 |
